Test results from article PMC8015787.

Substrate: O=CCO
Experiment: O2 consumption
Assay type: biochemical, Escherichia coli
Conditions: thiamin diphosphate (ThDP), Mg2+ active site; donor (and acceptor) substrate

B1: 1-deoxy-D-xylulose 5-phosphate synthase (DXPS) (Escherichia coli K-12) (protein)
chain: SFDIAKYPTLALVDSTQELRLLPKESLPKLCDELRRYLLDSVSRSSGHFASGLGTVELTVALHYVYNTPFDQLIWDVGHQAYPHKILTGRRDKIGTIRQKGGLHPFPWRGESEYDVLSVGHSSTSISAGIGIAVAAEKEGKNRRTVCVIGDGAITAGMAFEAMNHAGDIRPDMLVILNDNEMSISENVGALNNHLAQLLSGKLYSSLREGGKKVFSGVPPIKELLKRTEEHIKGMVVPGTLFEELGFNYIGPVDGHDVLGLITTLKNMRDLKGPQFLHIMTKKGRGYEPAEKDPITFHAVPKFDPSSGCLPKSSGGLPSYSKIFGDWLCETAAKDNKLMAITPAMREGSGMVEFSRKFPDRYFDVAIAEQHAVTFAAGLAIGGYKPIVAIYSTFLQRAYDQVLHDVAIQKLPVLFAIDRAGIVGADGQTHQGAFDLSYLRCIPEMVIMTPSDENECRQMLYTGYHYNDGPSAVRYPRGNAVGVELTPLEKLPIGKGIVKRRGEKLAILNFGTLMPEAAKVAESLNATLVDMRFVKPLDEALILEMAASHEALVTVEENAIMGGAGSGVNEVLMAHRKPVPVLNIGLPDFFIPQGTQEEMRAELGLDAAGMEAKIKAWLA
Km: 920 ± 120 µM
